Experimental data published in US20240417436A1 (BRIGHT PEAK THERAPEUTICS, published 2024).
Bridges are numbered along the chain shown (N, C = ends). Primed or numbered codes have the meaning given here. [ ]: non-standard residue; d: D form. cleavable peptide, 4x polyethylene glycol = not defined here; Ygp = O-(8x polyethylene glycol-amino)-tyrosine; Yn3 = O-(9x polyethylene glycol-azido)-tyrosine; 4x polyethylene glycol = not defined here; cleavable moiety, PEG9 = not defined here; PEG16′ = 16x polyethylene glycol; PEG4′ = 4x polyethylene glycol; hSer = N[C@@H](CCO)C(=O)O; Nle = CCCC[C@H](N)C(=O)O

T1: IL-2 receptor βγ complex on pan T cells (human, UniProt P14784 27-551; P31785 23-369)
T1 sequence (looked up) 1: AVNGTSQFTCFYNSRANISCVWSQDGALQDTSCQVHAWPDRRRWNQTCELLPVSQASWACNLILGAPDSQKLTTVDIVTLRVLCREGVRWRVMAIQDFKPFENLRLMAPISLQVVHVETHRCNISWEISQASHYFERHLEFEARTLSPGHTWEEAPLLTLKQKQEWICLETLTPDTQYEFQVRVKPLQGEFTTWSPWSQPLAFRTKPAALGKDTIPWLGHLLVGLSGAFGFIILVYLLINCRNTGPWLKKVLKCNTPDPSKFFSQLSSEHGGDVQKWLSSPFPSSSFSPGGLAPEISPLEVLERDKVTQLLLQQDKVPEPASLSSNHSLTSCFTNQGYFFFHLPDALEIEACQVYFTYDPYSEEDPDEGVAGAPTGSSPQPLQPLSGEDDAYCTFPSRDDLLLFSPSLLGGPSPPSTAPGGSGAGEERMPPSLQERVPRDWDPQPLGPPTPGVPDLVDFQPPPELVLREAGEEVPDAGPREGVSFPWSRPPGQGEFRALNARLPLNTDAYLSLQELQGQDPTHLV
T1 sequence (looked up) 2: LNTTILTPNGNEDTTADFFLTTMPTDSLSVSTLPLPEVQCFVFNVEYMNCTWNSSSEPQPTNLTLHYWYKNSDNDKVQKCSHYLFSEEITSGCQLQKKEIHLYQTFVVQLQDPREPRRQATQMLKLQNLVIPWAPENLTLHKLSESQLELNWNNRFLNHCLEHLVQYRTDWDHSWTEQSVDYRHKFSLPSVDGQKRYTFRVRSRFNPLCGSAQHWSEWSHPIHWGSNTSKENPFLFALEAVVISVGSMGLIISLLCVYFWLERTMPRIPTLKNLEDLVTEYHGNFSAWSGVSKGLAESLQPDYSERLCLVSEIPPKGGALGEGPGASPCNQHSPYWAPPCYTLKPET

B1: CMP-154 (ligand)
chain: PLGLAGAPTSSSTKKTQLQLEHLLLDLQ[Nle]ILNGIENYKNPKLTR[Nle]L[hSer][Yn3]KF[Ygp][Nle]PKKATELKHLQCLEEELKPLEEVL[hSer]LAQSKNFHLRPRDLISNINVIVLELKGSETTF[hSer]CEYADETATIVEFLNRWITFSQSIISTLT
modifications: linker N-35 via 9x polyethylene glycol
B2: CMP-159, MMP2 cleaved (ligand)
chain: PLGLAGAPTSSSTKKTQLQLEHLLLDLE[Nle]ILNGINNYKNPKLTR[Nle]L[hSer][Yn3]KF[Ygp][Nle]PKKATELKHLQCLEEELKPLEEVL[hSer]LAQSKNFHLRPRDLISNINVIVLELKGSETTF[hSer]CEYADETATIVEFLNRWITFSQSIISTLT
modifications: not fully specified (bridges); ends and bridges not checked; also: cleaved by MMP2 (macrocycle opened), cut site not given here
B3: CMP-156, MMP2 cleaved (ligand)
chain: APTSSSTKKTQLQLEHLLEDLQ[Nle]ILNGINNYKNPKLTR[Nle]L[hSer][Yn3]KF[Ygp][Nle]PKKATELKHLQCLEEELKPLEEVL[hSer]LAQSKNFHLRPRDLISNINVIVLELKGSETTF[hSer]CEYADETATIVEFLNRWITFSQSIISTLT
modifications: also: MMP2-cleaved cleavable peptide, macrocycle opened, cut site not given here, remnants on Glu19 and N-terminus unspecified
B4: CMP-154, MMP2 cleaved (ligand)
chain: PLGLAGAPTSSSTKKTQLQLEHLLLDLQ[Nle]ILNGIENYKNPKLTR[Nle]L[hSer][Yn3]KF[Ygp][Nle]PKKATELKHLQCLEEELKPLEEVL[hSer]LAQSKNFHLRPRDLISNINVIVLELKGSETTF[hSer]CEYADETATIVEFLNRWITFSQSIISTLT
modifications: also: macrocycle (9x PEG linker between residue 1 and Glu35 side chain) opened by MMP2 cleavage within PLGLAG, cut site not given here
B5: CMP-158 (ligand)
chain: APTSSSTKKTQLQLEHLLLDLE[Nle]ILNGINNYKNPKLTR[Nle]L[hSer][Yn3]KF[Ygp][Nle]PKKATELKHLQCLEEELKPLEEVL[hSer]LAQSKNFHLRPRDLISNINVIVLELKGSETTF[hSer]CEYADETATIVEFLNRWITFSQSIISTLT
modifications: linker N-22 via cleavable peptide, 4x polyethylene glycol; not fully specified; reading uncertain
B6: CMP-152, MMP2 cleaved (ligand)
chain: PLGLAGAPTSSSTKKTQLQLEHLLLDLQ[Nle]ILNGINNYKNPKLTR[Nle]L[hSer][Yn3]KF[Ygp][Nle]PKKATELKHLQCLEEELKPLEEVL[hSer]LAQSKNFHLRPRDLISNINVIVLELKGSETTF[hSer]CEYADETATIVEFLNRWITFSQSIISTLT
modifications: also: macrocycle (glutaric acid-9x PEG linker between residue 1 and Lys38 side chain) opened by MMP2 cleavage within PLGLAG, cut site not given here
B7: CMP-156 (ligand)
chain: APTSSSTKKTQLQLEHLLEDLQ[Nle]ILNGINNYKNPKLTR[Nle]L[hSer][Yn3]KF[Ygp][Nle]PKKATELKHLQCLEEELKPLEEVL[hSer]LAQSKNFHLRPRDLISNINVIVLELKGSETTF[hSer]CEYADETATIVEFLNRWITFSQSIISTLT
modifications: linker N-19 via cleavable peptide, 4x polyethylene glycol; not fully specified; reading uncertain
B8: CMP-158, MMP2 cleaved (ligand)
chain: APTSSSTKKTQLQLEHLLLDLE[Nle]ILNGINNYKNPKLTR[Nle]L[hSer][Yn3]KF[Ygp][Nle]PKKATELKHLQCLEEELKPLEEVL[hSer]LAQSKNFHLRPRDLISNINVIVLELKGSETTF[hSer]CEYADETATIVEFLNRWITFSQSIISTLT
modifications: also: MMP2-cleaved cleavable peptide, macrocycle opened, cut site not given here, remnants on Glu22 and N-terminus unspecified
B9: CMP-159 (ligand)
chain: PLGLAGAPTSSSTKKTQLQLEHLLLDLE[Nle]ILNGINNYKNPKLTR[Nle]L[hSer][Yn3]KF[Ygp][Nle]PKKATELKHLQCLEEELKPLEEVL[hSer]LAQSKNFHLRPRDLISNINVIVLELKGSETTF[hSer]CEYADETATIVEFLNRWITFSQSIISTLT
modifications: linker N-28 via PEG4′; ends not checked
B10: CMP-157, MMP2 cleaved (ligand)
chain: PLGLAGAPTSSSTKKTQLQLEHLLEDLQ[Nle]ILNGINNYKNPKLTR[Nle]L[hSer][Yn3]KF[Ygp][Nle]PKKATELKHLQCLEEELKPLEEVL[hSer]LAQSKNFHLRPRDLISNINVIVLELKGSETTF[hSer]CEYADETATIVEFLNRWITFSQSIISTLT
modifications: also: macrocycle (4x PEG linker between residue 1 and Glu25 side chain) opened by MMP2 cleavage within PLGLAG, cut site not given here
B11: CMP-139, MMP2 cleaved (ligand)
chain: [PEG16′]APTSSSTKKTQLQLEHLLLDLQ[Nle]ILNGIE(PEG16′)NYKNPKLTR[Nle]L[hSer][Yn3]KF[Ygp][Nle]PKKATELKHLQCLEEELKPLEEVL[hSer]LAQSKNFHLRPRDLISNINVIVLELKGSETTF[hSer]CEYADETATIVEFLNRWITFSQSIISTLT
modifications: numbers in words are those of the source; ends and bridges not checked; also: cleavable peptide cut by MMP2, macrocycle opened, cut site not given here
B12: CMP-151, MMP2 cleaved (ligand)
chain: APTSSSTKKTQLQLEHLLLDLQKILNGINNYKNPKLTR[Nle]L[hSer][Yn3]KF[Ygp][Nle]PKKATELKHLQCLEEELKPLEEVL[hSer]LAQSKNFHLRPRDLISNINVIVLELKGSETTF[hSer]CEYADETATIVEFLNRWITFSQSIISTLT
modifications: disulfide 58-105; also: MMP2-cleaved cleavable peptide, macrocycle opened, cut site not given here, remnants on Lys23 and Ala1 N-terminus unspecified
B13: CMP-155, MMP2 cleaved (ligand)
chain: APTSSSTKKTQLQLEHLLLDLQ[Nle]ILNGIENYKNPKLTR[Nle]L[hSer][Yn3]KF[Ygp][Nle]PKKATELKHLQCLEEELKPLEEVL[hSer]LAQSKNFHLRPRDLISNINVIVLELKGSETTF[hSer]CEYADETATIVEFLNRWITFSQSIISTLT
modifications: also: MMP2-cleaved cleavable peptide, macrocycle opened, cut site not given here, remnants on Glu29 and N-terminus unspecified
B14: CMP-160 (ligand)
chain: APTSSSTKKTQLQLEHLLLDLQ[Nle]ILEGINNYKNPKLTR[Nle]L[hSer][Yn3]KF[Ygp][Nle]PKKATELKHLQCLEEELKPLEEVL[hSer]LAQSKNFHLRPRDLISNINVIVLELKGSETTF[hSer]CEYADETATIVEFLNRWITFSQSIISTLT
modifications: linker N-26 via cleavable moiety, PEG9; ends not checked; also: cleavable moiety sequence not given here
B15: CMP-157 (ligand)
chain: PLGLAGAPTSSSTKKTQLQLEHLLEDLQ[Nle]ILNGINNYKNPKLTR[Nle]L[hSer][Yn3]KF[Ygp][Nle]PKKATELKHLQCLEEELKPLEEVL[hSer]LAQSKNFHLRPRDLISNINVIVLELKGSETTF[hSer]CEYADETATIVEFLNRWITFSQSIISTLT
modifications: linker N-25 via 4x polyethylene glycol; reading uncertain
B16: CMP-152 (ligand)
chain: PLGLAGAPTSSSTKKTQLQLEHLLLDLQ[Nle]ILNGINNYKNPKLTR[Nle]L[hSer][Yn3]KF[Ygp][Nle]PKKATELKHLQCLEEELKPLEEVL[hSer]LAQSKNFHLRPRDLISNINVIVLELKGSETTF[hSer]CEYADETATIVEFLNRWITFSQSIISTLT
modifications: linker N-38 via 1,5‑pentanedioic acid‑9x polyethylene glycol

The binders below were run against T1, IL-2 receptor βγ complex on pan T cells (assay: cell-based or functional assay).

Binder	Average EC50, pSTAT5 assay in pan T cells, intact molecule [nM]	Average EC50, pSTAT5 assay in pan T cells, MMP2 cleaved molecule [nM]
B1	24.7	–
B2	–	2.27
B3	–	21.3
B4	–	4.2
B5	36.6	–
B6	–	2.95
B7	86	–
B8	–	1.95
B9	35.5	–
B10	–	10
B11	–	3.61
B12	–	1.81
B13	–	2.9
B14	27.8	–
B15	54.5	–
B16	16.1	–
